Source: patent US20240116985A1, “STAPLED PEPTIDES AND METHODS THEREOF” (priority 2020, published 2024)
Starred links: 1 amine or outer side, 2 acyl side, 3 side chain; linkers in the order of their positions; H or OH if unused. Positions of bridges follow the written chain, without caps; N, C: chain ends. Non-standard residues stand in square brackets, D forms with d. Primed or numbered codes have the meaning given here. *: point of attachment. PyrS2(3) = (S)-3-amino-1-((pent-4-en-1-yloxy)carbonyl)pyrrolidine-3-carboxylic acid, stapling residue, C=CCCCOC(=O)N1CC[C@@](N[*:1])(C(=O)[*:2])C1; PyrS2″ = (S)-3-amino-1-((pent-4-en-1-yloxy)carbonyl)pyrrolidine-3-carboxylic acid (stapling residue), C=CCCCOC(=O)N1CC[C@@](N[*:1])(C(=O)[*:2])C1; B5(16) = 2-amino-2-(pent-4-en-1-yl)hept-6-enoic acid = 2,2-bis(4-pentenyl)glycine (stitching residue), C=CCCCC(CCCC=C)(N[*:1])C(=O)[*:2]; B5(4) = 2,2-bis(4-pentenyl)glycine = 2-amino-2-(pent-4-en-1-yl)hept-6-enoic acid (stitching residue), C=CCCCC(CCCC=C)(N[*:1])C(=O)[*:2]; B5(5) = 2,2-bis(4-pentenyl)glycine, 2-amino-2-(pent-4-en-1-yl)hept-6-enoic acid (stitching residue), C=CCCCC(CCCC=C)(N[*:1])C(=O)[*:2]; TfeGA = (S)-2-amino-3-((carboxymethyl)(2,2,2-trifluoroethyl)amino)propanoic acid, O=C([C@H](CN(CC(=O)[*:3])CC(F)(F)F)N[*:1])[*:2]; PyrS2 = (S)-3-amino-1-((pent-4-en-1-yloxy)carbonyl)pyrrolidine-3-carboxylic acid, C=CCCCOC(=O)N1CC[C@@](N[*:1])(C(=O)[*:2])C1; B5(3) = 2,2-bis(4-pentenyl)glycine (stitching residue), C=CCCCC(CCCC=C)(N[*:1])C(=O)[*:2]; B5″ = 2,2-bis(4-pentenyl)glycine, stitching residue, C=CCCCC(CCCC=C)(N[*:1])C(=O)[*:2]; B5 = 2-amino-2-(pent-4-en-1-yl)hept-6-enoic acid, C=CCCCC(CCCC=C)(N[*:1])C(=O)[*:2]; Phe(2-Cl) = N[C@@H](Cc1ccccc1Cl)C(=O)O; 2Nal = N[C@@H](Cc1ccc2ccccc2c1)C(=O)O; Bta = N[C@@H](Cc1csc2ccccc12)C(=O)O; Lys(iPr) = CC(C)NCCCC[C@H](N)C(=O)O; αAllylPro = C=CC[C@@]1(C(=O)O)CCCN1; tBuAla = CC(C)(C)C[C@H](N)C(=O)O; 3Thi = N[C@@H](Cc1ccsc1)C(=O)O; Cha = N[C@@H](CC1CCCCC1)C(=O)O; Cit = NC(=O)NCCC[C@H](N)C(=O)O; S8 = C=CCCCCCC[C@](C)(N)C(=O)O; Leu(ol) = CC(C)C[C@H](N)CO; Prolinol = OC[C@@H]1CCCN1*; hSer = N[C@@H](CCO)C(=O)O

target: full-length beta-Catenin (Uniprot ID P35222) (Homo sapiens (Human)) (UniProt P35222); test: fluorescence polarization competition; full-length beta-catenin + 5FAM-TCF4(10-53) probe as competitor
Target sequence in this assay (P35222 2-781 limits assumed): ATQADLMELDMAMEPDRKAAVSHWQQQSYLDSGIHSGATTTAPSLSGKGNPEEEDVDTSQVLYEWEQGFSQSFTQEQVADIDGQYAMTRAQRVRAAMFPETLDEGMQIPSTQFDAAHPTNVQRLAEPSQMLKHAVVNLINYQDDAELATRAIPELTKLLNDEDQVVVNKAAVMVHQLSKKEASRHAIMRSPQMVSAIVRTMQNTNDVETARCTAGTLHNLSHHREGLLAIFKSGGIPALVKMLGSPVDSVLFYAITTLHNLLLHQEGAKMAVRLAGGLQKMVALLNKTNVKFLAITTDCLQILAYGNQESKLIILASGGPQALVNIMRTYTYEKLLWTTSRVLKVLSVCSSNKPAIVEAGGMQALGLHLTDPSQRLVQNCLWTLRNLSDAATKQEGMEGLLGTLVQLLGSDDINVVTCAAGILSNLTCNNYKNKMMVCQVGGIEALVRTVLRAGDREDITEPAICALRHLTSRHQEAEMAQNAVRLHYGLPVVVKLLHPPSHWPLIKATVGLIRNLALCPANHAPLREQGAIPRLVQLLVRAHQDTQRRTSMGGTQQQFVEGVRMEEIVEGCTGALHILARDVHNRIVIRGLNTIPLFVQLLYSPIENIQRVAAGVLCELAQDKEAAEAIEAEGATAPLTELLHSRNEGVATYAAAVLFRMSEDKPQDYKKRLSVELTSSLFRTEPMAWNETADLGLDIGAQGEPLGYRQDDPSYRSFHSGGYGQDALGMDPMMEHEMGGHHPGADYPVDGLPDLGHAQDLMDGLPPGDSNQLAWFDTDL

EC50 [nM]	Binder
368	Ac-[αAllylPro]D[tBuAla][B5(4)]DDAAFN[PyrS2″][Phe(2-Cl)][Bta]-Prolinol (staple 1-4, 4-11) [I-1084]
12	Ac-[αAllylPro]D[tBuAla][B5(3)]DDAAFT[S8][Phe(2-Cl)][Bta]Q-NH2 (staple 1-4, 4-11; also: earlier eluting staple isomer) [I-1086]
22	Ac-[αAllylPro]D[tBuAla][B5(3)]DEAAFT[S8][Phe(2-Cl)][Bta]Q-NH2 (staple 1-4, 4-11; also: earlier eluting staple isomer) [I-1088]
12	Ac-[αAllylPro]D[tBuAla][B5(3)]DEAAFT[S8][Phe(2-Cl)][Bta]Q-NH2 (staple 1-4, 4-11; also: later eluting staple isomer) [I-1089]
18	Ac-[αAllylPro]D[tBuAla][B5(3)]DDAAFT[S8][Phe(2-Cl)][Bta]T-NH2 (staple 1-4, 4-11) [I-1090]
27	Ac-[αAllylPro]D[tBuAla][B5(3)]DEAAFT[S8][Phe(2-Cl)][Bta]T-NH2 (staple 1-4, 4-11) [I-1091]
26	Ac-[αAllylPro]D[tBuAla][B5(3)]DDAAFT[S8][Phe(2-Cl)][Bta][dT]-NH2 (staple 1-4, 4-11) [I-1092]
24	Ac-[αAllylPro]D[2Nal][B5(3)]DDAAFS[PyrS2″][Phe(2-Cl)][Bta]Q-NH2 (staple 1-4, 4-11) [I-1109]
40	Ac-[αAllylPro]D[Cha][B5(5)]DDAAFL[PyrS2″][Phe(2-Cl)][Bta]S-NH2 (staple 1-4, 4-11) [I-1112]

target: full-length beta-Catenin (Uniprot ID P35222) (Homo sapiens (Human)) (UniProt P35222); test: fluorescence polarization competition; full-length beta-catenin, 5FAM-TCF4(10-53) probe as competitor
Target sequence in this assay (P35222 2-781 limits assumed): as above

IC50 [nM]	Binder
559	Ac-[αAllylPro]L[tBuAla][B5(5)]DDAAFN[PyrS2″][3Thi][Bta]Q-NH2 (staple 1-4, 4-11) [I-1226]
100	Ac-[αAllylPro][hSer][tBuAla][B5(5)]DDAAFN[PyrS2″][3Thi][Bta]Q-NH2 (staple 1-4, 4-11) [I-1228]
134	Ac-[αAllylPro][hSer][tBuAla][B5(5)]DDAAFL[PyrS2″][3Thi][Bta]Q-NH2 (staple 1-4, 4-11) [I-1229]
82	Ac-[αAllylPro]D[tBuAla][B5(4)]D[TfeGA]AAFT[PyrS2″][Phe(2-Cl)][Bta][Leu(ol)] (staple 1-4, 4-11) [I-1243]

target: full-length beta-Catenin (Uniprot ID P35222) (Homo sapiens (Human)) (UniProt P35222); test: fluorescence polarization competition; 10 nM full-length beta-catenin, 10 nM 5FAM-TCF4(10-53) probe
Target sequence in this assay (P35222 2-781 limits assumed): as above

IC50 [nM]	Binder
822	Ac-[αAllylPro]N[tBuAla][B5(4)]DQ[Lys(iPr)]AFL[PyrS2]F[Bta]K-NH2 (staple 1-4, 4-11) [I-1643]

target: full-length beta-Catenin (Uniprot ID P35222) (Homo sapiens (Human)) (UniProt P35222); test: fluorescence polarization competition; full-length beta-catenin with 5FAM-TCF4(10-53) probe as competitor
Target sequence in this assay (P35222 whole entry): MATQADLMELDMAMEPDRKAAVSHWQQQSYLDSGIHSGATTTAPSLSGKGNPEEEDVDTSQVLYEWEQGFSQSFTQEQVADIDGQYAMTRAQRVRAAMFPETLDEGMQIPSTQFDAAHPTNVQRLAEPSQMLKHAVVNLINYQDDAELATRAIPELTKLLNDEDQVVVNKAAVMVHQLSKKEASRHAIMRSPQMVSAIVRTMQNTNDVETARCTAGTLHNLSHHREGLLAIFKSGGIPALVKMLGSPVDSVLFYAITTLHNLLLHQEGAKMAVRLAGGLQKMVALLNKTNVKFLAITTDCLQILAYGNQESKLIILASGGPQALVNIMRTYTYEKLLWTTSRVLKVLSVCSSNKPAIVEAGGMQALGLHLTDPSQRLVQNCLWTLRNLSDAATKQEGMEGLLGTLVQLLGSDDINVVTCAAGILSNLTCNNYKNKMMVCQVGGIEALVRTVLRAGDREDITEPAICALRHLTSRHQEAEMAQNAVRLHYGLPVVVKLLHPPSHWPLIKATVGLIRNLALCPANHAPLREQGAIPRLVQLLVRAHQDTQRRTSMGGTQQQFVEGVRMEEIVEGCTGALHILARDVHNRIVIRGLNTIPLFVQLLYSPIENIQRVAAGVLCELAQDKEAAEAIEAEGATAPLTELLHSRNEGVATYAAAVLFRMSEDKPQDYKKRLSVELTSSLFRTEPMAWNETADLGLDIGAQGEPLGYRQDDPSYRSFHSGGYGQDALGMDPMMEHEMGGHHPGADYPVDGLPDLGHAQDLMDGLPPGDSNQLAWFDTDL

IC50 [nM]	Binder
50	Ac-[αAllylPro]D[Cha][B5]DEAAFN[S8]F[Bta]H-NH2 (staple 1-4, 4-11) [I-615]
108	Ac-[αAllylPro]DL[B5]DEAAF[Cit][S8]F[Bta]H-NH2 (staple 1-4, 4-11) [I-616]
44	Ac-[αAllylPro]D[Cha][B5(4)]DEAAFN[S8]F[Bta]Q-NH2 (staple 1-4, 4-11; also: earlier-eluting staple isomer) [I-619]
35	Ac-[αAllylPro]D[Cha][B5(16)]DEAAFN[S8]F[Bta]Q-NH2 (staple 1-4, 4-11; also: later-eluting staple isomer composition) [I-620]
58	Ac-[αAllylPro]DL[B5(4)]DEAAF[Cit][S8]F[Bta]Q-NH2 (staple 1-4, 4-11) [I-621]
273	Ac-[αAllylPro]DL[B5(4)]DEAAFN[S8]F[Bta]-NH2 (staple 1-4, 4-11; also: earlier-eluting staple isomer) [I-624]
119	Ac-[αAllylPro]DL[B5(4)]DEAAFN[S8]F[Bta]-NH2 (staple 1-4, 4-11; also: later-eluting staple isomer) [I-625]

target: full-length beta-Catenin (Uniprot ID P35222) (Homo sapiens (Human)) (UniProt P35222); test: fluorescence polarization competition; peptide titrated against 10 nM full-length beta-catenin + 10 nM 5FAM-TCF4(10-53) probe
Target sequence in this assay (P35222 whole entry): as above

EC50 [nM]	Binder
50	Ac-[αAllylPro]D[Cha][B5]DEAAFN[S8]F[Bta]H-NH2 (staple 1-4, 4-11) [I-615]
108	Ac-[αAllylPro]DL[B5]DEAAF[Cit][S8]F[Bta]H-NH2 (staple 1-4, 4-11) [I-616]
44	Ac-[αAllylPro]D[Cha][B5(4)]DEAAFN[S8]F[Bta]Q-NH2 (staple 1-4, 4-11; also: earlier-eluting staple isomer) [I-619]
35	Ac-[αAllylPro]D[Cha][B5(16)]DEAAFN[S8]F[Bta]Q-NH2 (staple 1-4, 4-11; also: later-eluting staple isomer composition) [I-620]
58	Ac-[αAllylPro]DL[B5(4)]DEAAF[Cit][S8]F[Bta]Q-NH2 (staple 1-4, 4-11) [I-621]
273	Ac-[αAllylPro]DL[B5(4)]DEAAFN[S8]F[Bta]-NH2 (staple 1-4, 4-11; also: earlier-eluting staple isomer) [I-624]
119	Ac-[αAllylPro]DL[B5(4)]DEAAFN[S8]F[Bta]-NH2 (staple 1-4, 4-11; also: later-eluting staple isomer) [I-625]

target: full-length beta-Catenin (Uniprot ID P35222) (Homo sapiens (Human)) (UniProt P35222); test: FP competition: displacement of 5FAM-TCF4(10-53) from full-length beta-catenin
Target sequence in this assay (P35222 whole entry): as above

EC50 [nM]	Binder
32	Ac-[αAllylPro]D[tBuAla][B5″]NDAAFN[PyrS2(3)][3Thi][Bta]Q-NH2 (staple 1-4, 4-11) [I-1206]
40	Ac-[αAllylPro]D[tBuAla][B5″]NDAAFL[PyrS2(3)][3Thi][Bta]Q-NH2 (staple 1-4, 4-11) [I-1207]
349	Ac-[αAllylPro]D[tBuAla][B5(5)]SDAAFN[PyrS2″][3Thi][Bta]Q-NH2 (staple 1-4, 4-11) [I-1208]
479	Ac-[αAllylPro]D[tBuAla][B5(5)]SDAAFL[PyrS2″][3Thi][Bta]Q-NH2 (staple 1-4, 4-11) [I-1209]
56	Ac-[αAllylPro]D[tBuAla][B5(5)]QDAAFN[PyrS2″][3Thi][Bta]Q-NH2 (staple 1-4, 4-11) [I-1210]
115	Ac-[αAllylPro]D[tBuAla][B5(5)]QDAAFL[PyrS2″][3Thi][Bta]Q-NH2 (staple 1-4, 4-11) [I-1211]
8660	Ac-[αAllylPro]D[tBuAla][B5(5)]LDAAFN[PyrS2″][3Thi][Bta]Q-NH2 (staple 1-4, 4-11) [I-1212]
116	Ac-[αAllylPro]D[tBuAla][B5(5)][hSer]DAAFN[PyrS2″][3Thi][Bta]Q-NH2 (staple 1-4, 4-11) [I-1214]
216	Ac-[αAllylPro]D[tBuAla][B5(5)][hSer]DAAFL[PyrS2″][3Thi][Bta]Q-NH2 (staple 1-4, 4-11) [I-1215]
14	Ac-[αAllylPro]N[tBuAla][B5(4)]DDAAFL[PyrS2″][3Thi][Bta]Q-NH2 (staple 1-4, 4-11) [I-1221]
511	Ac-[αAllylPro]S[tBuAla][B5(5)]DDAAFN[PyrS2″][3Thi][Bta]Q-NH2 (staple 1-4, 4-11) [I-1222]
550	Ac-[αAllylPro]S[tBuAla][B5(5)]DDAAFL[PyrS2″][3Thi][Bta]Q-NH2 (staple 1-4, 4-11) [I-1223]
389	Ac-[αAllylPro]Q[tBuAla][B5(5)]DDAAFN[PyrS2″][3Thi][Bta]Q-NH2 (staple 1-4, 4-11) [I-1224]
305	Ac-[αAllylPro]Q[tBuAla][B5(5)]DDAAFL[PyrS2″][3Thi][Bta]Q-NH2 (staple 1-4, 4-11) [I-1225]
559	Ac-[αAllylPro]L[tBuAla][B5(5)]DDAAFN[PyrS2″][3Thi][Bta]Q-NH2 (staple 1-4, 4-11) [I-1226]
100	Ac-[αAllylPro][hSer][tBuAla][B5(5)]DDAAFN[PyrS2″][3Thi][Bta]Q-NH2 (staple 1-4, 4-11) [I-1228]
134	Ac-[αAllylPro][hSer][tBuAla][B5(5)]DDAAFL[PyrS2″][3Thi][Bta]Q-NH2 (staple 1-4, 4-11) [I-1229]
82	Ac-[αAllylPro]D[tBuAla][B5(4)]D[TfeGA]AAFT[PyrS2″][Phe(2-Cl)][Bta][Leu(ol)] (staple 1-4, 4-11) [I-1243]

target: full-length beta-Catenin (Uniprot ID P35222) (Homo sapiens (Human)) (UniProt P35222); test: fluorescence polarization competition; displacement of 5FAM-TCF4(10-53) from full-length beta-catenin
Target sequence in this assay (P35222 whole entry): as above

IC50 [nM]	Binder
24	Ac-[αAllylPro]D[2Nal][B5(3)]DDAAFS[PyrS2″][Phe(2-Cl)][Bta]Q-NH2 (staple 1-4, 4-11) [I-1109]
40	Ac-[αAllylPro]D[Cha][B5(5)]DDAAFL[PyrS2″][Phe(2-Cl)][Bta]S-NH2 (staple 1-4, 4-11) [I-1112]

target: full-length beta-Catenin (Uniprot ID P35222) (Homo sapiens (Human)) (UniProt P35222); test: fluorescence polarization competition; peptide titrated against 10 nM full-length beta-catenin + 10 nM 5FAM-TCF4(10-53)
Target sequence in this assay (P35222 2-781 limits assumed): as the sequence (P35222 2-781 limits assumed) above

IC50 [nM]	Binder
368	Ac-[αAllylPro]D[tBuAla][B5(4)]DDAAFN[PyrS2″][Phe(2-Cl)][Bta]-Prolinol (staple 1-4, 4-11) [I-1084]
12	Ac-[αAllylPro]D[tBuAla][B5(3)]DDAAFT[S8][Phe(2-Cl)][Bta]Q-NH2 (staple 1-4, 4-11; also: earlier eluting staple isomer) [I-1086]
22	Ac-[αAllylPro]D[tBuAla][B5(3)]DEAAFT[S8][Phe(2-Cl)][Bta]Q-NH2 (staple 1-4, 4-11; also: earlier eluting staple isomer) [I-1088]
12	Ac-[αAllylPro]D[tBuAla][B5(3)]DEAAFT[S8][Phe(2-Cl)][Bta]Q-NH2 (staple 1-4, 4-11; also: later eluting staple isomer) [I-1089]
18	Ac-[αAllylPro]D[tBuAla][B5(3)]DDAAFT[S8][Phe(2-Cl)][Bta]T-NH2 (staple 1-4, 4-11) [I-1090]
27	Ac-[αAllylPro]D[tBuAla][B5(3)]DEAAFT[S8][Phe(2-Cl)][Bta]T-NH2 (staple 1-4, 4-11) [I-1091]
26	Ac-[αAllylPro]D[tBuAla][B5(3)]DDAAFT[S8][Phe(2-Cl)][Bta][dT]-NH2 (staple 1-4, 4-11) [I-1092]
